Experimental data as given in doi:10.1101/370411.

Molecular target: Porcine circovirus 2 (PCV2) virus like particle, Baculovirus expressed capsid protein (Porcine circovirus 2)
Assay: cryo-EM structure

For “Porcine circovirus 2 (PCV2) virus like particle, Baculovirus expressed capsid protein (natural protein)”, the stoichiometry N was 60.
